Test results: patent US20220119543A1 (INATHERYS, published 2022)

What was measured:
[1] = target: T1, Recombinant human TfR (R&D Systems, Catalog number 2474-TR) (human, UniProt P02786 89-760); test: ELISA, recombinant human TfR coated on plate
T1 construct: Bought recombinant protein; also called Histidin-tagged human TfR; TfR-His; not shown: histidine tag
Experimental: For the determination of the specificity of the antibody an ELISA test may be applied using the following protocol. Recombinant human TfR (as obtained from R&D Systems, Catalog number 2474-TR) are directly coated on a 96 well plate overnight and washed twice before incubation with several dilutions (10) of the antibody (murine and humanized mAb) (dilution may start at the concentration of 50 μg/ml through 0,001 ug/ml) and incubate 1 hour at room temperature. After two washes a secondary antibody Goat-anti Human IgG is incubated Incubate 1 hour at room temperature in the dark, washed twice and incubated with the TMB solution for 10 minutes before reading the absorbance at 450 nm.

[2] = target: T1, Recombinant human TfR (R&D Systems, …); test: SPR (Biacore), His-tagged human TfR captured on anti-Penta-His CM5 chip, antibody injected
Experimental: Histidin-tagged human TfR (as obtained from R&D Systems, Catalog number 2474-TR) was bound after passage on covalently immobilized Penta-His mAb CM5 sensor chip. Ten different concentrations of antibody (1 to 500 nM) were injected across the anti-His/TfR-His surface for 4 minutes and the dissociation complexes was followed for 5 minutes. Both association and dissociation profiles are analyzed with a nonlinear square algorithm implemented in the BIAevalution software using single-exponential functions of time.

T1 sequence (P02786 89-760 limits assumed): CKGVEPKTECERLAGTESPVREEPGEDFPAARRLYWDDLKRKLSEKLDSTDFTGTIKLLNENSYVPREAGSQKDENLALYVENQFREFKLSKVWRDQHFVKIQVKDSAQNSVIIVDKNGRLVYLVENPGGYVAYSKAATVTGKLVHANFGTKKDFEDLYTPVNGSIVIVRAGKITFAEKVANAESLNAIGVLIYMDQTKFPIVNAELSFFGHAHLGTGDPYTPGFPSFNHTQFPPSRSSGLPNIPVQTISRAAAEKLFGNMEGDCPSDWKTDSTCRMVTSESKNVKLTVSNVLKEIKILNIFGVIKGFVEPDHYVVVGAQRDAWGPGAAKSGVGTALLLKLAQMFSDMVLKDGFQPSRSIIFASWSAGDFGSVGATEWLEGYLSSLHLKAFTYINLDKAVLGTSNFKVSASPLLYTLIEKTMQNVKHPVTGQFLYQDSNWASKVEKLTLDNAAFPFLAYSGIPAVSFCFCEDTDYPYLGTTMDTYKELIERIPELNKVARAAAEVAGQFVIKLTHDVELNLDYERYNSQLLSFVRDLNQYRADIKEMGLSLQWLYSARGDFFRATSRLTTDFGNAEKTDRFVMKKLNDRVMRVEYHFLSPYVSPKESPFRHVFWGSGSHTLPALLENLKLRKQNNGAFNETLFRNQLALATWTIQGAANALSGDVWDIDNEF

B1: mAb1 (antibody, human IgG4 S228P, kappa, V domains shown)
VH: QVQLVQSGPELKKPGASVKVSCKASGYTFTNQGMNWVKQAPGKGLKWMGWINTYTGEPINADDFKGRFVISLDTSASTAYLQISSLKAEDTAVYFCVREGWDSMDYWGQGTSVTVSS
VL: QIVLTQSPATLSVSPGERATLSCSASSSVNYMHWFQQKPGQSPRLLIYSTSNRATGIPARFSGSGSGTSYTLTISSLEPEDFAVYYCQQRSSYPLTFGQGTKLEIKR
notes: Humanized A24, human IgG4 isotype; also called VH4/VL4 with IgG4 Fc region
An EC50 [1] of 0.024 µg/mL and a Kd [2] of 315 pM were found for B1 in this work.
